To fix the notation:
B1: HDV Ribozyme (parent)
chain: GGCCGGCAUGGUCCCAGCCUCCUCGCUGGCGCCGGCUGGGCAACAUUCCGAGGGGACCGUCCCCUCGGUAAUGGCGAAUGGGACCCA

Variants of B1 are the subject of the data set. The data set can be described thus: self-cleavage, relative activity (ratio to wild type); higher = more cleavage; co-transcriptional.
Take C4U G25C: the self-cleavage came to 0.0773. Take G5A G17A: the self-cleavage was found to be 0.172.

Regarding G5C G31C, the self-cleavage turned out to be 0.0519. Consider G5C G31A, for which the self-cleavage is 0.0755. G5A A87G: the self-cleavage was determined as 0.252. The same measure for C4U G52C: 0.776. Then G5U A77G, with 0.227.

Regarding G5C G59A, the self-cleavage is 0.344. Then C4U G81A, with 0.136; and C4U G81U, with 0.0723; and C4U G53U, with 0.831. The same measure for C4A G29U: 0; for G5A A51C: 0.312; for C4A U37C: 0.415. On to G5C C64G, for which the self-cleavage came to 0.0462. In the case of C4U A77C, the self-cleavage amounted to 0.0978. Then G5A C63U, with 0.155. Consider C4U U69C, for which the self-cleavage stood at 0.755. Consider C4U U69G, for which the self-cleavage stood at 0.831. Consider G5A U47G, for which the self-cleavage was determined as 0.0875. C4A G52A: the self-cleavage stood at 0.401. Then C4A G81U, with 0.128. Turning to C4A G81C, the self-cleavage is 0. Then C4G U69G, with 0.317.

For the variant C4G U69C, the self-cleavage came out at 0.308.

For the variant G5A G81U, the self-cleavage stood at 0.

Take C4A U72C: the self-cleavage amounted to 0.111. Then G5C G50A, with 0.302; and C4G A16C, with 0.0755; and C4G C24U, with 0.193. C4G C15G: the self-cleavage was 0.308. As for C4A U65A, the self-cleavage is 0.594. For the variant G5U G50A, the self-cleavage was determined as 0.196. Turning to G5U G50U, the self-cleavage turned out to be 0.795. For the variant C4G C49A, the self-cleavage turned out to be 0.346. Then G5U G34A, with 0.0875; and G5C A77U, with 0; and C4G A42U, with 0.0875. Then G5U G55U, with 0.394; and C4U U46A, with 0.485. Then C4U U46G, with 0.277.

With G5C U37G, the self-cleavage is 0.111.

On to C4A G82A, for which the self-cleavage was 0.0272. Regarding C4A G82U, the self-cleavage is 0.089. Take G5C A51G: the self-cleavage worked out at 0.262. Consider G5U G80A, for which the self-cleavage came to 0.208. Then G5A A78G, with 0.178; and G5A A78C, with 0.106.

For C4G C32G, the self-cleavage was 0. Turning to C4G C32U, the self-cleavage amounted to 0.086.

In the case of C4G C32A, the self-cleavage is 0.0692.

Take G5U G76A: the self-cleavage turned out to be 0.391.

For G5A G25A, the self-cleavage was found to be 0. Then C4U U37C, with 0.772; and G5C G53C, with 0.237; and C4G C85G, with 0.332. Then C4G A56G, with 0.249. Then G5A A77C, with 0.0504; and G5A A77U, with 0. G5C G73U: the self-cleavage is 0.0504. The same measure for G5A C26U: 0.511; for C4A C84U: 0.172; for G5U U9G: 0.554. As for G5U U9C, the self-cleavage came out at 0.332.

Consider G5C C36U, for which the self-cleavage was 0.0978. The same measure for G5U C33A: 0.898; for C4G C18A: 0.0287. Then C4G C18G, with 0.0282. Take C4A G74C: the self-cleavage turned out to be 0.0997. The same measure for C4G A45C: 0.0554; for G5A G59A: 0.407. Turning to C4A U27G, the self-cleavage came out at 0.225. The same measure for G5U G6C: 0.

Regarding G5U G6U, the self-cleavage came out at 0. The same measure for C4G G29U: 0.0292; for C4G G29A: 0. The same measure for C4A C85U: 0.381; for C4A C85A: 0.346; for G5C G17U: 0. Then G5C G17A, with 0.0852; and G5C G68U, with 0.0615; and G5C U69C, with 0.396.

Consider C4U C32U, for which the self-cleavage worked out at 0.525. Then G5C C14U, with 0.506. The same measure for G5C C14A: 0.0692; for G5A C85U: 0.142; for C4G A8U: 0.214.

For the variant G5C A42G, the self-cleavage is 0. Then G5C C84U, with 0.119; and G5A G10U, with 0.188. As for C4U C26G, the self-cleavage was 0.72. As to G5C G25U, the self-cleavage worked out at 0.0475. For the variant G5C G80U, the self-cleavage is 0.124.

As for C4A U69C, the self-cleavage is 0.277. Then G5A C30G, with 0.0426; and G5A C30A, with 0.109; and C4U G34A, with 0.772. Then G5C C85U, with 0.277; and G5U C24U, with 0.115.

Regarding G5U C24G, the self-cleavage worked out at 0.

For C4U A43C, the self-cleavage amounted to 0.578.

In the case of C4G C30G, the self-cleavage stood at 0. For G5A G55A, the self-cleavage stood at 0.237. For the variant G5A U69G, the self-cleavage worked out at 0.353. Then G5U C48U, with 0.346; and G5C C86U, with 0.172. The same measure for G5C C86G: 0.113. With C4U A70G, the self-cleavage turned out to be 0.541. Consider C4U G6A, for which the self-cleavage turned out to be 0.532. The same measure for G5C C48G: 0.0755; for G5A G31A: 0; for C4G A71U: 0.156.

With G5C G74A, the self-cleavage came to 0.0898.

As to C4A G73C, the self-cleavage worked out at 0.0426.

Consider C4A G73A, for which the self-cleavage was found to be 0. As for G5C A45C, the self-cleavage was 0.0639. Then G5C C24A, with 0.0811; and C4U C14G, with 0.369; and C4A C86G, with 0.405.

As for C4U C22A, the self-cleavage turned out to be 0.188.

For G5C G82A, the self-cleavage came out at 0.123. Then G5U G35C, with 0. The same measure for G5U C41G: 0.111. Then G5U C41U, with 0.415. Turning to G5C G38U, the self-cleavage is 0. The same measure for G5A C13A: 0.0369. Then C4G G50C, with 0.237; and C4G G50A, with 0.415.

For the variant C4G G73A, the self-cleavage came to 0.156.

G5U C44U: the self-cleavage was 0.369. The same measure for C4U G10A: 0.35; for C4G G35U: 0.0875. As to G5U C26A, the self-cleavage was 0.697. For C4G G67C, the self-cleavage turned out to be 0.374. The same measure for G5A C86G: 0.13; for G5C C21A: 0.0831; for C4U G5C: 0.166. Turning to G5C U47A, the self-cleavage was found to be 0.158. Then G5A C21A, with 0.0923. As to G5A C24G, the self-cleavage came out at 0.

For the variant G5C C41A, the self-cleavage was found to be 0.0665. The same measure for G5U C57G: 0.256; for G5U C57U: 0.604. Then C4U G39A, with 0.136.

For C4U G39U, the self-cleavage was determined as 0.58. The same measure for C4U U23C: 0.571; for G5C U60G: 0.185; for C4G G17U: 0.

As for G5C G11C, the self-cleavage was found to be 0.196. In the case of G5C G10C, the self-cleavage amounted to 0.

In the case of G5C G10U, the self-cleavage stood at 0.0489. As to C4G G81A, the self-cleavage was 0.0382. Then C4G G52C, with 0.383; and C4G G52A, with 0.47; and C4G G52U, with 0.215. Then C4G U47G, with 0.175; and C4U C61G, with 0.394; and C4G C75G, with 0.122.

Turning to C4G C75A, the self-cleavage was 0.0692. For G5C C75A, the self-cleavage amounted to 0.0536. Then G5C U79G, with 0; and G5U G38U, with 0.453. Then G5U G38A, with 0.119; and G5C U65A, with 0.246; and C4A G55U, with 0.237. Take G5U C7A: the self-cleavage was determined as 0.566. The same measure for C4G G34A: 0.161.

The values above are taken from the RNAGym collection of RNA variant scans (doi:10.7554/elife.80360).
